Literature values as cited in publication PMC3910004.

Target: T1, human interleukin-6 receptor (hIL-6R) (Homo sapiens) (UniProt P08887)
T1 sequence: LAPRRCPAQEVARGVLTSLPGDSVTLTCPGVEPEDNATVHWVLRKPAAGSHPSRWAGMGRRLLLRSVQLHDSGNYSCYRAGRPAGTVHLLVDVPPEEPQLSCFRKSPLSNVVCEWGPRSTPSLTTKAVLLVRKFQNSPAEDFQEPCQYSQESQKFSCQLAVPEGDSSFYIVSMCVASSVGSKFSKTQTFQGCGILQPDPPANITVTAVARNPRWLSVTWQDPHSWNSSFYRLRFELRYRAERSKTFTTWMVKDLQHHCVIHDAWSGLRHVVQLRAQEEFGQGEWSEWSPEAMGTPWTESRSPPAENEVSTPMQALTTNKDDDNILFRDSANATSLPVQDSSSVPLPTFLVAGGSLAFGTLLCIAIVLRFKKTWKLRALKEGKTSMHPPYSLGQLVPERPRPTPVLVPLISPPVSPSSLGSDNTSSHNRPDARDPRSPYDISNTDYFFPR
Settings: Cell binding by flow cytometry, 50 nM conjugate, 45 min, serum-free medium, 37 °C (stated for the uptake in cytotoxicity assays); binding buffer details not in …

GGGGAGGCUGUGGUGAGGG [AIR-3A]
Kd: 8.5 nM
